Test results taken from patent US20100329990.

Target: TTE (TBF-EGFP fusion with the TEV protease recognition sequence ENLYFQG, flanked by 4 glycines on each side, between TBF and EGFP)

B1: TEV protease (Gibco-Life Technologies) (protein)
chain: GESLFKGPRDYNPISSTICHLTNESDGHTTSLYGIGFGPFIITNKHLFRRNNGTLLVQSLHGVFKVKNTTTLQQHLIDGRDMIIIRMPKDFPPFPQKLKFREPQREERICLVTTNFQTKSMSSMVSDTSCTFPSSDGIFWKHWIQTKDGQCGSPLVSTRDGFIVGIHSASNFTNTNNYFTSVPKNFMELLTNQEAQQWVSGWRLNADSVLWGGHKVFMSKPEEPFQPVKEATQLMNELVYSQ
  cleavage of TTE by TEV protease, followed by time-gated emission spectra (loss of Tb3+ to EGFP energy transfer): The absence of the chromophore peak at 510 nm indicates that the energy transfer system from Tb^3+ to the chromophore is diminished.
